Assay: yeast display, Sf9 membrane polyspecificity reagent, FACS + sequencing; frameworks hold sequencing errors
Summary of the method: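 A synthetic nanobody library was expressed on Saccharomyces cerevisiae BJ5465 by galactose induction for 36–48 hours. The library was stained for 1 hour at 4 °C with 10% biotinylated, detergent-solubilized Sf9 membrane reagent and enriched with streptavidin microbeads before FACS. Low and high (top ~1%) gates were set on anti-HA fluorescence for expression and streptavidin fluorescence for reagent binding, and each polyreactivity label reflects the gate of origin.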

Sequence	polyreactivity (PSR sort gate)
QVQLVESGGVLVQAGGSLRLSCADSGSTFFFYAMGWYRHAPGKERELLAAISSTGRTYYADSVKGRFTISRDNAKNSVYLQMNSLKPEETAVYYCAARIYSGYSYWGQGTQVTVSS	high polyreactivity
QVQLVESGGVLVQAGGSLRLTCAAYGFSFSTYAMGWYRQAPGKERQLVASIDWSGDSTYYADSVKGRFTISRDNAKNTVYLQMNSLKPEDTAVYYCAADDASYPYIFDSYDYWGQGTQVTVSS	low polyreactivity
QVQLVESGGVLVQAGVSLRLSCAASGRTFFRYTMGWYRQAPGKERELVAAISRSDGSTYYADSVKGRFTISRDNAKNTVYLQMNSLKPEDTAVYYCAKSLPSGYYYWGQGTQVTVSS	low polyreactivity
QVQLVESGGVLVQAVGSLRLSCAASGSIFHDYALGWYRQAPGKEREMVAAISSGSGSTSYADSVKGRFTISRDNAKNTVYLQMNSLKPEATAVYYCNADADAVPFAFRGSYDYWGQGTQVTVSS	low polyreactivity
QVQLVESGGVLVQPGCILRLSCAASGRIYWYYAMGWYRQAPGKERELVAAISRSRGSTYYADSVKGRFTISRDNEKNTVYLQMNSLKPEDTAVYYCAAGARAFDDDYWGQGTQVTVSS	low polyreactivity
QVQLVESGGVLVQPGGSLRLSCAASGSTFQSYTMGWYRQAPGKERELVAAISSSGGRTYYADSVKGRFTISRDNEKNTVYLQMNRLKPEDTAVYYCAAVTKSWRGATWYDYWGQGTHVTVSS	high polyreactivity
QVQLVESGGVLVQSGGSLRLSCAASGRTFWWYAMGWYRQAPGKERALVAGISSGGSTYYADSVKGRFTISRDNAKYTVYLQMNSLKPEDTAVYYCAKTYWYPWRASLWHEYDYWGQGTQVTVSS	low polyreactivity
QVQLVESGLGLVQAGGSLRLSCAASGTTLLGYAMGWYRQAPGKERELVAAITGSGGRTSYADSVKGRFTISRDNAKNTVYLQMNSLKPEDTAVYYCAAARRYHFQRFNYWGQGTQVTVSS	high polyreactivity
QVQLVESGPGLVQAGGSLRLSSAASGLTFRWNGMGWYRQATGKERELVAAITGNAGSTYYADSVKGRFTISRDNAKNTVYLQMKSLNPEDTAVYYCAARLRYYYLVGYGYWGQGTQVTVSS	high polyreactivity
QVQLVESGRALVQAGGSLRVSCAASGRTFDTNAMGWYRQAPGKERELVAVITARGGNTSYADSVKGRFTLSRDNAKNSVYLQMNSLKPEDTAVYYCAARVYRAPWTYDEGNYWGQGTQVTVSS	low polyreactivity
QVQLVESGRCLVQAGGSLRLSCAASGITFDGNAMGWYRQEPGKERELVAGITRIGGGTYYADSVKGRFTISRDNAKNTVYLQMNSLKPEDTAVYYSAKDALVPNFTKDIFEYDYWGQVTQVTVSS	low polyreactivity
QVQLVESGRGIVQAGGSLRLSCAASGSTFAVNAMGWYRQAPGKERELVAAISTGGSTNYADSVKGRFTISRDNEKNTVFLQMNSLKPEDTAVYYCAAEHPVTYPTSKFDYWGQGTQVTVSS	low polyreactivity
QVQLVESGRGKVQAGGSLRLSCAASGFTFRGNAMGWYRQAPGKERELVAAITSSGGRTYYADSVKGRFTISRDNAKNTVYLQMNSLKPEDTAVYYCAARYAYPSRYYYWGQGTQVTVSS	high polyreactivity
QVQLVESGRGLFQAGGSLRLSCAASGSIFYSYAMGWYRQAPGKERELVAAISRSGGSTYYADSVKGRFTISRDNAKNTVYLQMNSLKPEDTAVYYCAAKNTGRYYWGLGTQVTVSS	high polyreactivity
QVQLVESGRGLVHAGGSIRLSCAASGRIFGLYAIGWYRQAPGKERELVASINSRGGSTNYAVSVKGRFTISRDNAMNTVYLQMNSLKPEDTAVYYCNARIVYAYQRYYWGQGTHVTVSS	high polyreactivity
QVQLVESGRGLVQAGASLRLSCAASGSTFAQYARGSYRQAPWKESELVAAITRTGITNYADSVKGRFTISRDNAKNNVYLQMNSLKPEDTAVYYCAARRWRNGYGTGYGYWGLGTQVTVSS	high polyreactivity
QVQLVESGRGLVQAGASLRLSCAASGSTFYVNAMGWYRQAPGKERELVAAITSTGTTHYADSVKGRFTISRDNAKNTVYLQMNSLKPEDTAVYYCAAYSRYQSRRYYYWGQGTQVTVSS	high polyreactivity
QVQLVESGRGLVQAGGILRLSCAASGFIFYYYAMVWYRQAPGKERELVAAISQRGGRTYYAESVKGSFTISRDYAKNTVYLQMNSLKTEDTAVYYCAARPAYRSSYYWGQGTQVTVSS	high polyreactivity
QVQLVESGRGLVQAGGSLRLSCAAAGSTFVSYDLGWSRQAPGKERELLADISWSGVSTDADSVKGRFTLSRDNAKNTVYLQMNSLKPEDPAVYYCAKDSDLYQRGGYYWGQGTQVTVSS	low polyreactivity
QVQLVESGRGLVQAGGSLRLSCAASGFTFKSYAKGWYRHATGKVRELVAAISRGTSTKYADSVKGRFTISRDNAKNTVYLQMNSLKPEDSAVYNCAALFPTSDLRLRYYRYDYWGQGTQVTVSS	low polyreactivity
QVQLVESGRGLVQAGGSLRLSCAASGIIFPFYAMGCYRQAPGKERELVAAITSGDDTYYADSVKGRFTISRDNAKNTVYLQMNSLKPEDTAVYYCNKRLYIAGYWPQLYYIMDYWGQGTQVTVSS	low polyreactivity
QVQLVESGRGLVQAGGSLRLSCAASGIIFRLNAMGWYRQAPGKERELVAAILRRGGSTYYADSVKGRFTISRDNAKNTVYFQMNSLKPEDTAVDYCAKDPHGSDFGYWGQGTQVTVSS	low polyreactivity

Sequence	polyreactivity (PSR sort gate)
QVQLVESGRGLVQAGGSLRLSCAASGITCPVNVMGWYRQAPGKERELVAAISTSGGSTYYADSVKGRFTISRDNAKNTVYLQMNSLKPEDTAVYYCARQYIRSSYGYWGQGTQVTVSS	low polyreactivity
QVQLVESGRGLVQAGGSLRLSCAASGITFEYYAMGWYRQAPGKERELVAAIDTGGSTNYADSVKGRFTISRDNAKNTVYLQMNSLKPEDTAVYYCAADWSWWDGEDYHFEYDYWGQGTQVTVSS	low polyreactivity
QVQLVESGRGLVQAGGSLRLSCAASGITFNFYAKGWYRKAPGKERELVAAITQSGGSTYYADSVKGRFTISRDNAKNTVYLQMISLKPEDTAVYYWAAARTGHMYDLGQGTQVTVSS	high polyreactivity
QVQLVESGRGLVQAGGSLRLSCAASGITFTAYAMGWYRQAPGLERQLVATINSTGITNYADSLKGRFTISRDNAKNTVYLQMNSLKPEDTAVYYCAADLLYISSYDGMDYWGQGTQVTVSS	low polyreactivity
QVQLVESGRGLVQAGGSLRLSCAASGITYGNNAMGWYRQAPGKERELVATITSSGGSTYYADSVKGRFTISRDNAKNTVYSQMNSLKPEDTAVYYCAARQPGTRYPYDYWGQGTQVTVSS	high polyreactivity
QVQLVESGRGLVQAGGSLRLSCAASGLIFTANAMGWYRQAPGKERELVASITRDGGTNYADSVKVRFTISRDNAKNTVYLQMNSLKPEDTAVYYCAKESGSVLTLYDYWGQGTQVTVSS	low polyreactivity
QVQLVESGRGLVQAGGSLRLSCAASGRIFSTYAMGWYRQAPGKERELVAAISWRGSSTYYADSVKGRFTISRDNAKNTVYLQMNSLKPEDPAVYYCNADKANRYDWGQGTQVTVSS	high polyreactivity
QVQLVESGRGLVQAGGSLRLSCAASGRIFYVYDMGWYRQAPGKESELVAAITQSGGRTYYADSVKGRFTISRDNAKNTVYLQRNSLKPEDTAVYYCAATWLGSRNLVHITLYYWGQGTQVTVSS	low polyreactivity
QVQLVESGRGLVQAGGSLRLSCAASGRIFYYNDMGWYRQAPGNERELFAAITWTDDGTYYADSVKGRFTISRDNAKNTVYLQMNSLKPVDTAVYYCAKDYNRTVEDWAKVNGFDFWGQVTQVTVSS	low polyreactivity
QVQLVESGRGLVQAGGSLRLSCAASGRTFPVYAMGWYRQAPGKERELVAAITYSGGSTSYADSVKGRFTISRDNAKNTVYLQMNSLKPEDTAVYYCAADRAYYSRGIGSVGYYYWGQGTQVTVSS	low polyreactivity
QVQLVESGRGLVQAGGSLRLSCAASGSIFAFYAMGWYRPAAGKERELVAVITRSGGSTYYADSVKGRFTISRDNAKITVYLQMNSLKPEDTAVFYCAARTGYGYTRYEYWGQGTQVTVSS	high polyreactivity
QVQLVESGRGLVQAGGSLRLSCAASGSIFGYYAMGWYRQAPGKERELVAAISRSGGSTYYADSVKGRFTISRDNAKNTVYLQMNSLKPEDTAVYYCAADDYPYGNYYWGQGTQVTVSS	high polyreactivity
QVQLVESGRGLVQAGGSLRLSCAASGSIFTHYAMVWYRQAPGKERELVATISNGDGSTYYADSVKGRFTISRDNAKNTVYLQMNSLKPEDTAVYYCNVDDFSQYADDSWGYEYWGQGTQVTVSS	low polyreactivity
QVQLVESGRGLVQAGGSLRLSCAASGSTCEGNAMGWYRQAPGKEELVAAISWSSDSTYNADSVKGRFTISRDNAKNTVYLQMNSLKPEDTAVYYCAAAIPGKYSNDYWGQGTQVTVSS	high polyreactivity
QVQLVESGRGLVQAGGSLRLSCAASGSTFAPYTMGWYRQAPGKERELVAAISWNGGRTSYADSVKGRFTISRDNAKNTVYLQMNSLKPEDTAVYYCATRRIWTQSYDGGLYGYYYWGQGTQVTVSS	high polyreactivity
QVQLVESGRGLVQAGGSLRLSCAASGSTFDGYAMGWYRQAPGKVRELVAAINWGGGSTRYADSVKGRFTISRDHAKNTVYLQMNSLKPEDTPVYYCAAYRYRVWYRGYDYWGQGTQVTVSS	high polyreactivity
QVQLVESGRGLVQAGGSLRLSCAASGSTFQVYTMGWYRQAPGKEREFVASISWSGSSTYYADSVKGRFTISRDNAKNTVYLQMNSLKPEDTAVYYCAARVGSTYRRYYYWGQGTQVTVSS	high polyreactivity
QVQLVESGRGLVQAGGSLRLSCAASGSTFRGNAMGWYRQATGKERELVAAITRSGGRTYYADSVKGRFTISRDNAKNTVYLQMNSLKPEDTAVYYCAVEYKYPGYDYWGPGTQVTVSS	high polyreactivity
QVQLVESGRGLVQAGGSLRLSCAASGSTFTEYAMGWYREAPGKERELFAAINRSGGGTYYADSVKGRFTISRDNAKNTVYLQINSLKPEDTADYYCAKDWYRRYIRDYWGQGTQVTVSS	high polyreactivity
QVQLVESGRGLVQAGGSLRLSCAASGYIFDRYAMGWSRQAPGKERELVAAISGRGGSTYYADSVKGRFTISRDNAKNTVYLQMNSLNPEDTAVYYCARDVYVRNGQRARYDSWGQGTQVTVSS	high polyreactivity
QVQLVESGRGLVQAGGSLRLSCAASGYTFSHYAMGWYRQAPGKEMELVAGNTWSGGSTYYADSVKGRFTISRDNAKNTVYLQMNSLKPEDTSVYYCAAKYYWYYSYSGIPLFDYWGQGTQVTVSS	low polyreactivity
